Reference: patent publication EP4596580A1 (Staidson (Beijing) Biopharmaceuticals Co., Ltd., dated 2025)
Positions count from the first letter of the chain named. Where two headings read alike, the source gives them in different places.

T1: His-human LIGHT (human)
T1 construct: also called His-huLIGHT; free LIGHT
T1 chain: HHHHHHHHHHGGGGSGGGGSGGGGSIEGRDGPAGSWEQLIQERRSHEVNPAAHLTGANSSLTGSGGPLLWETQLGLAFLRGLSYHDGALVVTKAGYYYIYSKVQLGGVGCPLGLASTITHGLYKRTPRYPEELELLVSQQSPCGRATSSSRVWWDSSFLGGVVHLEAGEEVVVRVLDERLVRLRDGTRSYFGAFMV

T2: His-cynomolgus monkey LIGHT (cynomolgus monkey)
T2 construct: also called His-cynoLIGHT
T2 chain: T1 chain with P32H, A33G, E47Q, V48N, S83D, V91A, T92N, S149N, A167V

T3: His-mouse LIGHT (mouse)
T3 construct: also called His-musLIGHT
T3 chain: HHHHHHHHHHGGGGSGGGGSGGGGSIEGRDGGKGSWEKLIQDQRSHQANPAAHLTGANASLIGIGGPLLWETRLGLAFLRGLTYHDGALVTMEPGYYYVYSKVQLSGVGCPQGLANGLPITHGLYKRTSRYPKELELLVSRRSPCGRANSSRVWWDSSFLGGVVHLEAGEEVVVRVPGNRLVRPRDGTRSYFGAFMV

B1: LT-m31 (antibody, human IgG4, V domains shown)
VH: QIQLLQSGPELEKPGETVKISCKASGYTFTNYGMNWVKQAPGKGLKWMGWINTYTGEPTYADDFKGRFAFSLETSASTAYLQINNLKNEDTATYFCARDNWDGKGMDYWGQGTSVTVSS
VL: DIVLTQSPKFMSTSVGDRVSITCKASQDVDTAVAWYQQKPGHSPKLLLYWASTRHTGVPDRFTGSGSGTDFTLTISNVQSEDLADYFCHQYGSYPLTFGAGTKLELK
B2: LT-m33 (antibody, human IgG4, V domains shown)
VH: QVQLKQSGAELVKPGASVRLSCKTSGYTFTNYYVYWVKQRPGQGLEWIGEINPTNGDPNFNEKFKSKATLTVDKSSSTAYMHLSSLTSEDSAVYYCTRSNWDYGNAMDFWGQGTSVTVSS
VL: DIVMTQSPASLAVSLGQRATISCKASQSVDFDGDGYMNWYQQKPGQPPKLLIYKASHLDSGIPARFSGSGSGTDFTLNIHPVEEEDAATYYCQQSIEDPLTFGDGTRLEIK
B3: LT-m37 (antibody, human IgG4, V domains shown)
VH: QVQLKQSGAELVRPGTSVKVSCKASGYSFTGYFINWVKQSHGKSLEWIGRIYPYNVNTFYNQNFKGRATLTADKSSSTAHMELLSLTSEDSAVYYCGRGTHYYGSSGAMDYWGQGTSVTVSS
VL: DILLTQSHKFMSTSVGDRVSITCKASQNVGTAVAWYQQKPGQSPKLLIYSASNRYTGVPDRFTGSGSGTDFTLTISNMQSEDLADYFCQQYSSYPYTFGGGTKLEIK
B4: hum_LT-m58-1 (antibody, human IgG4, V domains shown)
VH: QVQLVQSGAEVKKPGASVKVSCKASGYTFIDHIMNWVRKAPGQGLEWMGRIYPVSGETNYNQKFMGRATFTVDRSTSTVYMELSSLRSEDTAVYYCGRGSYYWNAMDYWGQGTLVTVSS
VL: EIVMTQSPATLSVSPGERATLSCKASQSVDFDGDSYMNWYQQKPGQPPRLLIYSASNLESGIPARFSGSGSGTEFTLTISSLQSEDFAVYYCQQSIEDPWTFGQGTKLEIK
notes: humanized from LT-m58
B5: hum_LT-m85-3 (antibody, human IgG4, V domains shown)
VH: QVQLVQSGAEVKKPGASVKVSCKASGYTFTSYNVHWVRQAPGQGLEWIGAVYPGNGDTSYNQKFKGRATLTADKSTSTVYMELSSLRSEDTAVYYCARGSYYYTSSYFDHWGQGTLVTVSS
VL: B4 VL with S54T, I96Y, W100F
notes: humanized from LT-m85
B6: hum_LT-m58-5 (antibody, human IgG4, V domains shown)
VH: B4 VH with M48I, A68V
VL: B4 VL with D34E, P47A, L108V
notes: humanized from LT-m58
B7: hum_LT-m85-4 (antibody, human IgG4, V domains shown)
VH: B5 VH with V79A
VL: B4 VL with P47A, S54T, I96Y, W100F
notes: humanized from LT-m85
B8: hum_LT-m85-2 (antibody, human IgG4, V domains shown)
VH: B5 VH with I48M, V79A
VL: B4 VL with S54T, I96Y, W100F
notes: humanized from LT-m85
B9: hum_LT-m85-1 (antibody, human IgG4, V domains shown)
VH: B5 VH
VL: B4 VL with M4L, S54T, I96Y, W100F
notes: humanized from LT-m85
B10: hum_LT-m58-2 (antibody, human IgG4, V domains shown)
VH: B4 VH with M48I, A68V
VL: B4 VL with P47A, L108V
notes: humanized from LT-m58
B11: hum_LT-m58-6 (antibody, human IgG4, V domains shown)
VH: B4 VH
VL: DIVMTQSPDSLAVSLGERATINCKASQSVDFDGESYMNWYQQKPGQPPKLLIYSASNLESGVPDRFSGSGSGTDFTLTISSLQAEDVAVYYCQQSIEDPWTFGQGTKVEIK
notes: humanized from LT-m58

Key:
His-human LIGHT [1] = target: T1, His-human LIGHT; experiment: SPR, Biacore 8K, antibody on CM5 chip
His-human LIGHT [2] = target: T1, His-human LIGHT; experiment: ELISA, His-huLIGHT coated
His-human LIGHT [3] = target: T1, His-human LIGHT; experiment: cell-based or functional assay
[4] = target: T2, His-cynomolgus monkey LIGHT; experiment: ELISA, His-cynoLIGHT coated
hFc-human LIGHT [5] = target: T4, hFc-human LIGHT (human); experiment: competition ELISA, HVEM-His coated, hFc-huLIGHT 1 µg/ml
T4 construct: also called hFc-huLIGHT

His-human LIGHT [6] = target: T1, His-human LIGHT; experiment: cell-based or functional assay
hFc-human LIGHT [7] = target: T4, hFc-human LIGHT; experiment: competition ELISA, LTβR-His coated, hFc-huLIGHT 1 µg/ml
[8] = target: T5, LIGHT on the surface of HEK293-LIGHT stable cells (human, UniProt O43557 1-240); experiment: cell-based or functional assay
His-human LIGHT [9] = target: T1, His-human LIGHT; experiment: cell-based or functional assay
[10] = target: T2, His-cynomolgus monkey LIGHT; experiment: ELISA, His-cynoLIGHT coated
hFc-human LIGHT [11] = target: T4, hFc-human LIGHT; experiment: competition ELISA, LTβR-His coated, hFc-huLIGHT added
His-human LIGHT [12] = target: T1, His-human LIGHT; experiment: cell-based or functional assay
His-human LIGHT [13] = target: T1, His-human LIGHT; experiment: cell-based or functional assay
[14] = target: T5, LIGHT on the surface of HEK293-LIGHT …; experiment: cell-based or functional assay; remark: listed apart in the source
His-human LIGHT [15] = target: T1, His-human LIGHT; experiment: ELISA, His-huLIGHT coated
hFc-human LIGHT [16] = target: T4, hFc-human LIGHT; experiment: competition ELISA, LTβR-His coated, hFc-huLIGHT added; remark: listed apart in the source
His-human LIGHT [17] = target: T1, His-human LIGHT; experiment: cell-based or functional assay
His-human LIGHT [18] = target: T1, His-human LIGHT; experiment: cell-based or functional assay
[19] = target: T2, His-cynomolgus monkey LIGHT; experiment: ELISA, His-cynoLIGHT coated
His-human LIGHT [20] = target: T1, His-human LIGHT; experiment: ELISA, His-huLIGHT coated
His-human LIGHT [21] = target: T1, His-human LIGHT; experiment: cell-based or functional assay
hFc-human LIGHT [22] = target: T4, hFc-human LIGHT; experiment: competition ELISA, LTβR-His coated, hFc-huLIGHT added; remark: listed apart in the source
His-mouse LIGHT = target: T3, His-mouse LIGHT; experiment: ELISA, His-musLIGHT coated
[23] = target: T5, LIGHT on the surface of HEK293-LIGHT …; experiment: cell-based or functional assay; remark: listed apart in the source
[24] = target: T2, His-cynomolgus monkey LIGHT; experiment: ELISA, His-cynoLIGHT coated

Row | Binder | EC50 (His-human LIGHT [15]) [pM] | IC50 (hFc-human LIGHT [16]) [pM] | IC50, HVEM NF-κB luciferase reporter, free LIGHT (His-human LIGHT [18]) [pM] | EC50 [19] [pM] | EC50 (His-human LIGHT [20]) [pM] | IC50, LTβR NF-κB luciferase reporter, free LIGHT (His-human LIGHT [21]) [pM] | IC50 (hFc-human LIGHT [22]) [pM] | binding result (His-mouse LIGHT) | IC50, LTβR NF-κB luciferase reporter, HEK293-LIGHT cells [23] [pM] | also measured
1 | B1 | – | – | – | – | – | – | – | – | – | Kd (His-human LIGHT [1]): 39.5 pM; koff (His-human LIGHT [1]): 4.03e-05 s⁻¹; kon (His-human LIGHT [1]): 1.02e+06 M⁻¹ s⁻¹; EC50 (His-human LIGHT [2]): 0.0256 µg/mL; IC50, HVEM NF-κB luciferase reporter (293T-HVEM-NF-κB-Luc), free LIGHT (His-human LIGHT [3]): 0.105 µg/mL; binding result [4]: binds
2 | B2 | – | – | – | – | – | – | – | – | – | Kd (His-human LIGHT [1]): 23.5 pM; koff (His-human LIGHT [1]): 4.07e-05 s⁻¹; kon (His-human LIGHT [1]): 1.73e+06 M⁻¹ s⁻¹; EC50 (His-human LIGHT [2]): 0.0221 µg/mL; IC50, HVEM NF-κB luciferase reporter (293T-HVEM-NF-κB-Luc), free LIGHT (His-human LIGHT [3]): 0.207 µg/mL; binding result [4]: binds
3 | B3 | – | – | – | – | – | – | – | – | – | IC50 ratio (IC50 of the antibody / IC50 of F19) (hFc-human LIGHT [5]): 0.435; IC50, LIGHT induced MMP-9 production in BEAS-2B bronchial epithelial cells (His-human LIGHT [6]): 0.359 µg/mL; IC50 ratio (IC50 of the antibody / IC50 of F19) (hFc-human LIGHT [7]): 0.301; IC50, LTβR NF-κB luciferase reporter, HEK293-LIGHT cells [8]: 2280 pM; EC50 (His-human LIGHT [2]): 0.0774 µg/mL; IC50, HVEM NF-κB luciferase reporter (293T-HVEM-NF-κB-Luc), free LIGHT (His-human LIGHT [3]): 0.264 µg/mL; IC50, LTβR NF-κB luciferase reporter, free LIGHT (His-human LIGHT [9]): 257 pM; EC50 [10]: 157 pM; IC50 (hFc-human LIGHT [11]): 866 pM; IC50, HVEM NF-κB luciferase reporter, free LIGHT (His-human LIGHT [12]): 402 pM
4 | B4 | 14.1 | 291 | – | – | – | – | – | – | – | IC50, LTβR NF-κB luciferase reporter, free LIGHT (His-human LIGHT [13]): 183 pM; IC50, LTβR NF-κB luciferase reporter, HEK293-LIGHT cells [14]: 8060 pM; IC50, HVEM NF-κB luciferase reporter, free LIGHT (His-human LIGHT [17]): 93.3 pM
5 | B5 | – | – | 564 | 15.5 | 8.69 | 159 | 282 | no binding | 4680 | –
6 | B6 | 30.5 | 746 | – | – | – | – | – | no binding | – | EC50 [24]: 4.43 pM
7 | B7 | – | – | 454 | 3.3 | 12.7 | 252 | 308 | no binding | 2560 | –
8 | B8 | – | – | 209 | 14.2 | 13.1 | 61.3 | 265 | no binding | 6020 | –
9 | B9 | – | – | 330 | 8.9 | 12.3 | 649 | 274 | no binding | 4240 | –
10 | B10 | 15.4 | 258 | – | – | – | – | – | – | – | IC50, LTβR NF-κB luciferase reporter, free LIGHT (His-human LIGHT [13]): 135 pM; IC50, LTβR NF-κB luciferase reporter, HEK293-LIGHT cells [14]: 5910 pM; IC50, HVEM NF-κB luciferase reporter, free LIGHT (His-human LIGHT [17]): 199 pM
11 | B11 | 34.9 | 628 | – | – | – | – | – | no binding | – | EC50 [24]: 2.58 pM
